Assay [1] deals with scFab-TC1-eGFP fusion protein. Nature of the assay: IMiD-induced degradation of scFab-TC1-eGFP in HEK 293T cells, flow cytometry for GFP fluorescence. Format: cell-based. The following applies: HEK 293T cells transfected with scFab-TC1-eGFP; 1000 nM, 100 nM or 10 nM for 20 hours; GFP fluorescence intensity. As for the experimental part: Fab TC1 was converted into a previously described single-chain Fab construct using Gibson cloning (Hornsby, et al., Mol. Cell. Proteomics, 14:2833-2847 (2015)) and subsequently fused to eGFP by Gibson cloning into a pcDNA3.1 vector to produce an expression vector encoding an scTC1-eGFP fusion protein.
K562 and HEK293T cells utilized were from frozen stocks maintained by the Wells lab. The cell lines were not authenticated before use. No test for mycoplasma contamination was performed. Cells expressing scTC1-eGFP were transfected with FugeneHD transfection reagent purchased from Promega using the manufacturer's protocol. Unless otherwise noted all Jurkat and K562 cells lines were cultured in RPMI supplemented with 10% FBS and 1× Pen/Strep. CD19^+ K562 cells were maintained in puromycin (2 μg/mL). HEK293T cells containing the Gal4-UAS-Fluc operon were maintained in High Glucose DMEM supplemented with 10% FBS, 1× Pen/Strep, and puromycin (2 μg/mL). All cell lines were cultured at 37° C. under 5% CO2.
HEK 293T cells (ATCC® CRL-3216™) were transfected to express scFab-TC1-eGFP. Transfected cells were treated with thalidomide, lenalidomide, or pomalidomide at 1000 nM, 100 nM, or 10 nM for 20 hours, after which GFP fluorescence intensity was measured by flow cytometry. Treatment with DMSO was included as a negative control.
A general note: Flow cytometry measures light scatter and fluorescence of single cells or particles in a stream.

Assay [2] has as its target T1, pomalidomide-bound cereblon IMiD-binding domain (Pongo abelii (Sumatran orangutan) …, UniProt Q5R6Y2 306-414, biotinylated on its AviTag).
T1 construct: not shown: TEV cut site, AviTag and HIS6 tag fused to the domain
T1 sequence: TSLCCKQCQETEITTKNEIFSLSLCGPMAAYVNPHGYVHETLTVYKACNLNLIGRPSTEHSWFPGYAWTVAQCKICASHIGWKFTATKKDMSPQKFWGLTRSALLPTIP
Description: Fab-phage competition ELISA (OD450): binding to immobilized IMiD-bound cereblon IMiD-binding domain with 20 nM soluble competitor divided by binding without competitor. A general note: An ELISA detects its analyte on a solid surface through an enzyme-linked reagent.

Assay [3] has as its target T2, cereblon IMiD-binding domain (Homo sapiens, UniProt Q96SW2).
T2 construct: TEV cut site; HIS6 tag; made in house; host or cells: E. coli BL21(DE3)
Description: Biolayer interferometry binding kinetics of Fabs to cereblon IMiD-binding domain. The following applies: for binding to the cereblon IMiD-binding domain alone: absence of IMiD. As for the experimental part: Biolayer interferometery data were measured using an Octet RED384 instrument (ForteBio). Biotinylated cereblon was immobilized on a Streptavidin (SA) biosensor using a 200 nM solution. Serial dilutions of Fabs in kinetics buffer (PBS, pH 7.4, 0.05% Tween-20, 0.2% BSA, 10 μM biotin) with IMiD (1 μM) or vehicle (0.05% DMSO) were used as analyte. Affinity (KD) and kinetic parameters (kon and koff) were calculated from a global fit (1:1) of the data using the Octet RED384 software.
(§1) The unique Fabs from Example 1 were sub-cloned into a bacterial expression vector, expressed, and purified (Hornsby, et al., Mol. Cell. Proteomics, 14:2833-2847 (2015)). […] To further profile the Fabs, we characterized the kinetics of cereblon IMiD-binding domain binding for Fab-TC2 and Fab-PC1 in the presence or absence of their respective IMiD by biolayer interferometry (FIGS. 3A and 3B) (Shah, et al., J. Vis. Exp., e51383 (2014)).

The target of assay [4] is T3, cereblon IMiD-binding domain (SEQ ID NO: 25) (Homo sapiens, UniProt Q96SW2).
T3 construct: TEV cut site; HIS6 tag; made in house; host or cells: E. coli BL21(DE3)
Nature of the assay: Fab ELISA with cereblon IMiD-binding domain in the presence or absence of IMiD. The following applies: thalidomide, lenalidomide or pomalidomide, FIG. 2G. On the procedure: ELISAs were performed according to standard protocols. […] 20 nM of biotinylated cereblon was captured on the NeutrAvidin-coated wells for 30 minutes followed by the addition of various concentrations of Fab with either 5 μM thalidomide, lenalidomide, or pomalidomide or 0.05% DMSO for 30 minutes. The bound Fabs were then detected using a horseradish peroxidase (HRP)-conjugated anti-Fab monoclonal antibody (Jackson ImmunoResearch 109-036-097).
as §1

Where [5] appears, read: in the presence of lenalidomide.
The mark [6] stands for this setting: in the presence of pomalidomide.

Turning to `O=C1CCC(N2C(=O)c3ccccc3C2=O)C(=O)N1` (stereo not drawn) [thalidomide], the “GFP expression compared to the DMSO control” value in assay [1] was “reduced GFP expression”.

For the molecule `Nc1cccc2c1CN(C1CCC(=O)NC1=O)C2=O` (stereo not drawn) [lenalidomide], the “GFP expression compared to the DMSO control” value in assay [1] is recorded as “reduced GFP expression”.

For the molecule `Nc1cccc2c1C(=O)N(C1CCC(=O)NC1=O)C2=O` (stereo not drawn) [pomalidomide], the “GFP expression compared to the DMSO control” value in assay [1] is reported as “reduced GFP expression”.

B1: Fab-PC1 (Fab)
heavy: EISEVQLVESGGGLVQPGGSLRLSCAASGFNVSSYSIHWVRQAPGKGLEWVASISSYSGSTSYADSVKGRFTISADTSKNTAYLQMNSLRAEDTAVYYCARSYFVEYYYYYGWPWGLDYWGQGTLVTVSSASTKGPSVFPLAPSSKSTSGGTAALGCLVKDYFPEPVTVSWNSGALTSGVHTFPAVLQSSGLYSLSSVVTVPSSSLGTQTYICNVNHKPSNTKVDKKVEPKSCDKTHTGGSHHHHHH
light: SDIQMTQSPSSLSASVGDRVTITCRASQSVSSAVAWYQQKPGKAPKLLIYSASSLYSGVPSRFSGSRSGTDFTLTISSLQPEDFATYYCQQSSYSYLFTFGQGTKVEIKRTVAAPSVFIFPPSDSQLKSGTASVVCLLNNFYPREAKVQWKVDNALQSGNSQESVTEQDSKDSTYSLSSTLTLSKADYEKHKVYACEVTHQGLSSPVTKSFNRGECGGSDYKDDDDK
notes: chains assembled here by putting the CDRs in place of the scaffold's own CDR stretches; also called Fab-phage clone PC1
Consider B1, for which the competition selectivity ratio in assay [2] was < 0.5.

B2: Fab-PC1: Fab-phage clone from pomalidomide-cereblon IMiD-binding domain selection; CDRs SEQ ID NO: 4, 9, 14, 21, 22, 19 (antibody)
heavy: EISEVQLVESGGGLVQPGGSLRLSCAASGFNVSSYSIHWVRQAPGKGLEWVASISSYSGSTSYADSVKGRFTISADTSKNTAYLQMNSLRAEDTAVYYCARSYFVEYYYYYGWPWGLDYWGQGTLVTVSSASTKGPSVFPLAPSSKSTSGGTAALGCLVKDYFPEPVTVSWNSGALTSGVHTFPAVLQSSGLYSLSSVVTVPSSSLGTQTYICNVNHKPSNTKVDKKVEPKSCDKTHTGGSHHHHHH
light: SDIQMTQSPSSLSASVGDRVTITCRASQSVSSAVAWYQQKPGKAPKLLIYSASSLYSGVPSRFSGSRSGTDFTLTISSLQPEDFATYYCQQSSYSYLFTFGQGTKVEIKRTVAAPSVFIFPPSDSQLKSGTASVVCLLNNFYPREAKVQWKVDNALQSGNSQESVTEQDSKDSTYSLSSTLTLSKADYEKHKVYACEVTHQGLSSPVTKSFNRGECGGSDYKDDDDK
With B2, the “binding to the cereblon IMiD-binding domain alone” value in assay [3] is “no significant binding”. The “binding to the cereblon IMiD-binding domain” value is “potent and reversible binding” in assay [3] (setting [5]); “potent and reversible binding” in assay [3] (setting [6]); “potent and reversible binding” in assay [3] (in the presence of thalidomide).

B3: Fab-TC2: Fab-phage clone from thalidomide-cereblon IMiD-binding domain selection; CDRs SEQ ID NO: 2, 7, 12, 21, 22, 17 (antibody)
heavy: EISEVQLVESGGGLVQPGGSLRLSCAASGFNVSSSSIHWVRQAPGKGLEWVASIYSYYGSTYYADSVKGRFTISADTSKNTAYLQMNSLRAEDTAVYYCARTDSWYYYRYGGMDYWGQGTLVTVSSASTKGPSVFPLAPSSKSTSGGTAALGCLVKDYFPEPVTVSWNSGALTSGVHTFPAVLQSSGLYSLSSVVTVPSSSLGTQTYICNVNHKPSNTKVDKKVEPKSCDKTHTGGSHHHHHH
light: SDIQMTQSPSSLSASVGDRVTITCRASQSVSSAVAWYQQKPGKAPKLLIYSASSLYSGVPSRFSGSRSGTDFTLTISSLQPEDFATYYCQQYSWWWMPITFGQGTKVEIKRTVAAPSVFIFPPSDSQLKSGTASVVCLLNNFYPREAKVQWKVDNALQSGNSQESVTEQDSKDSTYSLSSTLTLSKADYEKHKVYACEVTHQGLSSPVTKSFNRGECGGSDYKDDDDK
Regarding B3, the “binding to the cereblon IMiD-binding domain bound to a different IMiD than the one used for selection” value in assay [4] is “all except one of the Fabs (Fab-phage clone TC2) was able to bind”. In assay [3], the “binding to the cereblon IMiD-binding domain alone” value is listed as “no significant binding”. Moreover, the “binding compared to binding in the presence of thalidomide” value in assay [3] (setting [5]) and in assay [3] (setting [6]) was “less potent binding” in each case. The “binding to the cereblon IMiD-binding domain” value in assay [3] (setting [5]) is “potent and reversible binding”; in assay [3] (setting [6]), “potent and reversible binding”; in assay [3] (in the presence of thalidomide) it was “potent and reversible binding”.
